One protein from article PMC7271948, “A baculoviral system for the production of human β-glucocerebrosidase enables atomic resolution analysis” (Acta Crystallographica. Section D, Structural Biology, 2020) can be followed below.

Substrate in the data set: Cc1cc(=O)oc2cc(O[C@@H]3O[C@H](CO)[C@@H](O)[C@H](O)[C@H]3O)ccc12
In words: purified protein.

B1: β-glucocerebrosidase (GBA) (Homo sapiens) (protein)
chain: ARPCIPKSFGYSSVVCVCNATYCDSFDPPTFPALGTFSRYESTRSGRRMELSMGPIQANHTGTGLLLTLQPEQKFQKVKGFGGAMTDAAALNILALSPPAQNLLLKSYFSEEGIGYNIIRVPMASCDFSIRTYTYADTPDDFQLHNFSLPEEDTKLKIPLIHRALQLAQRPVSLLASPWTSPTWLKTNGAVNGKGSLKGQPGDIYHQTWARYFVKFLDAYAEHKLQFWAVTAENEPSAGLLSGYPFQCLGFTPEHQRDFIARDLGPTLANSTHHNVRLLMLDDQRLLLPHWAKVVLTDPEAAKYVHGIAVHWYLDFLAPAKATLGETHRLFPNTMLFASEACVGSKFWEQSVRLGSWDRGMQYSHSIITNLLYHVVGWTDWNLALNPEGGPNWVRNFVDSPIIVDITKDTFYKQPMFYHLGHFSKFIPEGSQRVGLVASQKNDLDAVALMHPDGSAVVVVLNRSSKDVPLTIKDPAVGFLETISPGYSIHTYLWRRQ
B1: the Km amounted to 1288 ± 51 µM, the Vmax stood at 11.7 µM/min and the kcat was found to be 19.6 s⁻¹.
